Assay results: PMC5732184, “Arabidopsis Basic Helix-Loop-Helix 34 (bHLH34) Is Involved in Glucose Signaling through Binding to a GAGA Cis-Element”

T1: His-bHLH34 (Arabidopsis thaliana) (UniProt Q9LTC7)
T1 sequence: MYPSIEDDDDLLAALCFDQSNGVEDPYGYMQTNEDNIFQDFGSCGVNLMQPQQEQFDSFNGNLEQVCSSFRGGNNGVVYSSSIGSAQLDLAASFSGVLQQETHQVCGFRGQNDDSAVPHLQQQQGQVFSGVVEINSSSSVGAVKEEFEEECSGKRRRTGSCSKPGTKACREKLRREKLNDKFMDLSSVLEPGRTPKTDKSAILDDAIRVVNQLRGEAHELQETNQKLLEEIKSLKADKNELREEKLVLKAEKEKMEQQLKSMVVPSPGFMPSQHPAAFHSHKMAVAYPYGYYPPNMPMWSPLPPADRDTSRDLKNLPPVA

T2: His-bHLH34 (Arabidopsis thaliana, UniProt Q9LTC7 1-320)
T2 sequence: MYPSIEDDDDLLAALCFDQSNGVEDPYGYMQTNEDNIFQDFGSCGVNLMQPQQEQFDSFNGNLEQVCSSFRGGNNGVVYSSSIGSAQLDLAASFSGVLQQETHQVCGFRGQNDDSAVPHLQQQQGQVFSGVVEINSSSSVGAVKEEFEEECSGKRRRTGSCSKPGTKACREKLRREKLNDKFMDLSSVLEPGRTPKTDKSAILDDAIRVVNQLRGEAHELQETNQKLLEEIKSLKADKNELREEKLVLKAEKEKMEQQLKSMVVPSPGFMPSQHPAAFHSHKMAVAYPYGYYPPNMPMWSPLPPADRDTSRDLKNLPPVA


molecular target: T1, His-bHLH34 (Arabidopsis thaliana); assay: EMSA; conditions: 10 mM Tris-HCl pH 7.5, 50 mM KCl, 1 mM EDTA, 1 mM DTT, 2.5% glycerol, 1 ug poly(dI-dC), 100 ng protein, 0.3 pmol DNA in 20 uL; 25 C 20 min; 5% native PAGE in …

Molecule | binding
GTGATGGAGGTGTGACGCTAAGCCCTGAGCAGCACAAGGAGGTGGCACAAGTGGCCGGAGAGCTTCAAAAGTACTGTGTCAAGGAGCCTGTCAAAAATCCTCTCATTTTTGGAGGTAAAAGTGTAAGAACCTAGCTGCCA (double strand) [P2 fragment (-874 to -735)] | binds
TATTCGCAACCTATTCACAATTCACAAACTTTCAAATAAATGCGCCAAACTAAGTCAGATCCTCAAGATCGGTGTATACAAATCAGAAATCGTTACACAACCTTAGAGAGGAGGGTAGAAATGAGATCATCAGGTCCAGT (double strand) [P3 fragment (-734 to -595)] | binds
AACCACGGACTCAGATCCATTCCTCGAGACGTTTGAATCTCCCTCTTCAATATTCAATCCCGTACAAGGTGTTACGGAGTAGGAGTAGAAGATTAGGACTCGTCGTCAGTTCTGTTTCAGCTCCCAACGTTGAGCTCCGT (double strand) [P4 fragment (-594 to -456)] | binds
GAAGAAGAGACGGCCTATCACGCTTCTGTAGCCTCCACCAGGAGAGGTTGGTCTAGAACAGTACACCACTTCCCAATCTGCACCAAATCCCACAAGTTCACATATTGATCCAAGGAAGAAGCAA (double strand) [P1 fragment (-999 to -875)] | binds

molecular target: T2, His-bHLH34; assay: EMSA; 10 mM Tris-HCl pH 7.5, 50 mM KCl, 1 mM EDTA, 1 mM DTT, 2.5% glycerol, 1 ug poly(dI-dC), 100 ng protein, 0.3 pmol DNA in 20 uL; 25 C 20 min; 5% native PAGE in TBE at 4 C; conditions: protein: recombinant; tags: His tag (pET300/NT-DEST); chain copies: 2; label: 32P; blunt

Molecule | binding result
DBE1 (dsDNA) DNA 1: AGAAGAGACGGC DNA 2: GCCGTCTCTTCT | binds
DBE4 (dsDNA) DNA 1: CTTAGAGAGGAG DNA 2: CTCCTCTCTAAG | binds
E-box (dsDNA) DNA 1: CCGGCCACTTGTGCCA DNA 2: TGGCACAAGTGGCCGG | binds
DBE1 m1 (dsDNA) DNA 1: AGAATAGACGGC DNA 2: GCCGTCTATTCT | no binding
DBE2 (dsDNA) DNA 1: CCAGGAGAGGTT DNA 2: AACCTCTCCTGG | binds
DBE3 (dsDNA) DNA 1: AAATGAGAGGAT DNA 2: ATCCTCTCATTT | binds
DBE1 m3 (dsDNA) DNA 1: AGAAGATACGGC DNA 2: GCCGTATCTTCT | no binding
DBE1 m4 (dsDNA) DNA 1: AGAAGAGTCGGC DNA 2: GCCGACTCTTCT | no binding
DBE1 m2 (dsDNA) DNA 1: AGAAGTGACGGC DNA 2: GCCGTCACTTCT | no binding
DBE5 (dsDNA) DNA 1: AAATGAGATCAT DNA 2: ATGATCTCATTT | binds
DBE6 (dsDNA) DNA 1: GAGGGAGATTCA DNA 2: TGAATCTCCCTC | binds

molecular target: T2, His-bHLH34; assay: competition; 10-100x excess against 32P-DBE1; 10 mM Tris-HCl pH 7.5, 50 mM KCl, 1 mM EDTA, 1 mM DTT, 2.5% glycerol, 1 ug poly(dI-dC), 100 ng protein, 0.3 pmol DNA in 20 uL; 25 C 20 min; 5% native PAGE in TBE at 4 C; conditions: protein: recombinant; tags: His tag (pET300/NT-DEST); chain copies: 2; blunt

Molecule | binding result
DBE1 unlabeled competitor (dsDNA) DNA 1: AGAAGAGACGGC DNA 2: GCCGTCTCTTCT | binds
